The text below walks through data of article PMC2133019 (The Journal of Cell Biology, 1998).

Experiment [1] has as its target clathrin/AP cages (Bos taurus, UniProt P49951). Description: NMR line-broadening with assembled clathrin/AP cages. It is filed as binding, bovine. As to conditions: 2.5 mM peptide.
For experiment [2], the target named is assembled clathrin/AP cages (bovine (purified from bovine brain)) (UniProt P49951). Description: NMR line-broadening.
[3] abbreviates: 20 mg/ml cages, line-width with cages minus without.

acyl = not defined here

Chain of assembled clathrin/AP cages (bovine (purified from bovine brain)) (P49951 whole entry, looked up): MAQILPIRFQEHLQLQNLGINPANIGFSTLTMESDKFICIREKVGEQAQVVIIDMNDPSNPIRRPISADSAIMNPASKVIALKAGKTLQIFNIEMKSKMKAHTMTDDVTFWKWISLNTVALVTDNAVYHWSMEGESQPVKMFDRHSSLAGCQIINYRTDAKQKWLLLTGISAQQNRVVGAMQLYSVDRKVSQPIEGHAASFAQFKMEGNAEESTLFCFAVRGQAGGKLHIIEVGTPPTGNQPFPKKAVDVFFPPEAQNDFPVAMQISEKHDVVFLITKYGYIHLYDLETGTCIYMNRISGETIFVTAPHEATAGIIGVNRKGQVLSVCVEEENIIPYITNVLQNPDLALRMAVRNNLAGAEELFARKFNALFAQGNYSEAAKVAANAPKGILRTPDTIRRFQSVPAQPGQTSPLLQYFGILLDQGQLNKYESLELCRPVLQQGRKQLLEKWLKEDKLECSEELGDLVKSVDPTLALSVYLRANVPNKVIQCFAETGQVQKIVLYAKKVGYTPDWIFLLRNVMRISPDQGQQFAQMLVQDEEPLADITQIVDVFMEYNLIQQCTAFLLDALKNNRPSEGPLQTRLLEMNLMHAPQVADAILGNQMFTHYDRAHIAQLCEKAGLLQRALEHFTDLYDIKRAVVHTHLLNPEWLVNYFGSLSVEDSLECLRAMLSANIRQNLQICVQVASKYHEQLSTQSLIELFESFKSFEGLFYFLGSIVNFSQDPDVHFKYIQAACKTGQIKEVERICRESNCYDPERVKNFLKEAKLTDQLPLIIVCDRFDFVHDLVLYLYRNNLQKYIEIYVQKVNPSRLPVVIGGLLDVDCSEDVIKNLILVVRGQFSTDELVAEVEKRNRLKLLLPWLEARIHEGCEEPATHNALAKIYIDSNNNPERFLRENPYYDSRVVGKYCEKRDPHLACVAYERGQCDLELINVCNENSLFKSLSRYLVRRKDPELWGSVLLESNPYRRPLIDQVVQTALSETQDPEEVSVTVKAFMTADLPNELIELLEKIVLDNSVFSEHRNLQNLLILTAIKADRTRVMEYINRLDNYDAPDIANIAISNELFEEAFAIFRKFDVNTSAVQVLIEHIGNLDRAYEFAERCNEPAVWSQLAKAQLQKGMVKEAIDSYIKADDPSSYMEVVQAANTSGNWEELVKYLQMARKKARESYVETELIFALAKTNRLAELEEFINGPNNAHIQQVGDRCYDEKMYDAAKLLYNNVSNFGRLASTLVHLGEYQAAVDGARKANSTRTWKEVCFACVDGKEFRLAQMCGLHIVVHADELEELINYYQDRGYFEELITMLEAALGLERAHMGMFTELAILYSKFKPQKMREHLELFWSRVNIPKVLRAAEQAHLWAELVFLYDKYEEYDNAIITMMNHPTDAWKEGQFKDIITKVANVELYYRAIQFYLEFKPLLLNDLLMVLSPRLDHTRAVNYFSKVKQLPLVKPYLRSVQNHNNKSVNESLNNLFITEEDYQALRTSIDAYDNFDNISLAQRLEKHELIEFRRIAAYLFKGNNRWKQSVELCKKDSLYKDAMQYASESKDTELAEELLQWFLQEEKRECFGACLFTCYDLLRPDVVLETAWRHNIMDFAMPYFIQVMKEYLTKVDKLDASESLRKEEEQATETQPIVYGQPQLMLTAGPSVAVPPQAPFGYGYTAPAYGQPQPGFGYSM
Chain of clathrin/AP cages (P49951 whole entry): as the sequence (P49951 whole entry, looked up) above
Chain of clathrin/AP cages (P04973 whole entry partner): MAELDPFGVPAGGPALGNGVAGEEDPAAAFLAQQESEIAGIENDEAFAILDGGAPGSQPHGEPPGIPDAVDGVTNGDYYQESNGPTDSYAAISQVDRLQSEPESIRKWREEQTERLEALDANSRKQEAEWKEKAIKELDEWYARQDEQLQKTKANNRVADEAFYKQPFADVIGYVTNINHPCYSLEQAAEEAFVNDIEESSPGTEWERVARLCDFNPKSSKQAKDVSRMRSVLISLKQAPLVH
Chain of clathrin/AP cages (P04975 whole entry partner): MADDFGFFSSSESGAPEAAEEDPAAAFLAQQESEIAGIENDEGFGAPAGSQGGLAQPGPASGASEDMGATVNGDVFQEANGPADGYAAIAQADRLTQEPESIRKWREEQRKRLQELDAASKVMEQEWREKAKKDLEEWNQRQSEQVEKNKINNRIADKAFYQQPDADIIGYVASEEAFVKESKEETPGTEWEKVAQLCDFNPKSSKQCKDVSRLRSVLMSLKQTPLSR

Take “FDNPVYQKTT (acyl-FDNPVYQKTT-OH; reading uncertain; also: acylated N-terminus, acyl group not given here)”: in experiment [1] (setting [3]), the “line-broadening Phe εH” value was 3.60 Hz, the “line-broadening Thr10 γH” value was 2.95 Hz, the “line-broadening Tyr εH” value stood at 3.45 Hz and the “line-broadening Val γH1” value was 5.20 Hz. The “line-broadening Val γH2” value in experiment [1] (setting [3]) worked out at 3.82 Hz. For the same molecule, the “cage-induced line-broadening (in words)” value in experiment [1] (20 mg/ml clathrin/AP cages, pH 6.0) is “pronounced increase in the line widths”.

As for acyl-FDNPVYQKTT-OH (reading uncertain; also: acylated NH2 terminus) [wild-type LDL receptor internalization motif decapeptide …], in experiment [2], the line-broadening, Phe εH turned out to be 3.6 Hz; the line-broadening, Thr9 γH worked out at 3.18 Hz; the line-broadening, Thr10 γH stood at 2.95 Hz; the line-broadening, Tyr εH is 3.45 Hz. In experiment [2], this molecule displayed a line-broadening, Val γH1 of 5.2 Hz and a line-broadening, Val γH2 of 3.82 Hz.
